Assay: yeast display, Sf9 membrane polyspecificity reagent, FACS + sequencing; frameworks hold sequencing errors
How it was run: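 Sorting gates, low and high (top ~1%), were placed on anti-HA fluorescence to track expression and on streptavidin fluorescence to track reagent binding. A clone's polyreactivity label is taken from the gate it came out of. The reagent was 10% biotinylated, detergent-solubilized Sf9 membrane, applied for 1 hour at 4 °C to galactose-induced yeast display cells.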

Row | Sequence | polyreactivity (PSR sort gate)
1 | QVQLVESGGGLVQAGGSLRLSCAASGSIYFLYAMGWYRQAPGKERELVAAISWSVDRTYYADSVKGRFTISRDNAKNTVYLQMNSLKPEDTAVYYCAAVHWWSSSLRMYYWGQGTQVTVSS | low polyreactivity
2 | QVQLVESGGGLVQAGGSLRLSCAASGITFNTDTMGWYRQAPGKEWELVAAITLSGAGTYYADSVKGRFTISRDNAKNTVYLQMNSLKPEDTAVYYCAAYLSENRWPYVRYDYWGQGTQVTVSS | high polyreactivity
3 | QVQLVESGGGLVQAGGSLRLSCAASGRIFVGYAMGWYRQAPGKERELVAAISSDGGSTYYADSVKGRFTISRDNAKNTVYLQMNSLKPEDTAVYYCNAYYGRFPYYADDYWGQGTQVTVSS | low polyreactivity
4 | QVQLVESGGGLDQAGGSLRLSCAASGLTFYSNAMGWYRQAPGKERELVARISTGGSTYADSVKGRFTISRDNAKNTVYLQMNSLKPEDTAVNYCAKLPPRGIDDEYWGQGTQVTVSS | low polyreactivity
5 | QVQLVESGGGLVQAGGSLRLSCAASGFIFYDNAMGWYRQAPGKERELVAAITSGGSTYYADSVKGRFTISRDNAKNTVYLQMNSLKPEDTAVYYCATRPWGSWYYYWGQGTQVTVSS | high polyreactivity
6 | QVQLVESGGGLVQAGGSLRLSCAASGSTLSEYAMGWYRQAPGKERELVAAISWSGGSTYYADSVKGRFTISRDNAKNTVYLQMNSLKPEDTAVYDCAAKRYSSKRGLDYWGQGTHVTVSS | high polyreactivity
7 | QVQLVESGGGLVQAGGSLRLSCAASGSTFPYYVMGWYRQAPGKERELVAAIDESGDRTYYADSVKGRFTISRDNAKNTVYLQMNSLKPEDTAVYYCAAEGWYEYWYDYWGQGTQVTVSS | high polyreactivity
8 | QVQLVESGGGLVQAGGSLRLSCAASGSTFTDYAMGWYRQAPGKERELVAAITKSGGSTYYADSVKGRFTISRDNAKNTVYLQMNSLKPEDTAVYYCAAGNHRRPADYGSWGQGTQVTVSS | low polyreactivity
9 | QVQLVESGGGLVQAGGSLRLSCAASGFIFSRNAMGWYRQAPGKERELVAAISSTGGITYYADSVKGRFSISRDNAKNTVYLQMNSLKPEDTAVYYCAACFYGYARHTWYNYWGQGTQVTVSS | high polyreactivity
10 | QVQLVESGGVLVQAGGSLRLSCAASGTFVVNDMGWYRQGPGKERELVAALSWSGGSTYYADSVKGRFTISRDNAKNTVYLQMTSLKPEDTAVYYCAADNWWVYPVWYENDYWGQGTQVTVSS | low polyreactivity
11 | QVQLVESVVGLVQAGGSLPISCAASGSTFSANDMVWYSQPHGTERELVAAIDTGGTTYYADSVKGRFTISRDNAKNTVYLQMNSLKPEYTAVYYCNATIWYRDYGYWVQGTQVTVSS | low polyreactivity
12 | QVQLVESGGGLVQAGGSLRLSCAASGITFFIYAMGWYRQAPGKQRELFAAIRSGGSTNYADSVKGRFTISRDNAQNTVYLQMNSLKPEDTSVFYCAADVYGTVRRVGWYYVGEGYDYWGQGTQVTVSS | low polyreactivity
13 | QVQLVESGGGLVQAGGSLRLSCSASGSTFGRYAMGWYRQAPGKERELVAAISARGGSTYYADSVKGRFTISRDNAKNTVYLQMNSLKPEDTAVYYCNVDYLLHGGRFDYWGQGTQVTVSS | high polyreactivity
14 | QVQLVESGGGLVQARGSLRLSCAASGFTSLWNGMGLSSQAPGKERELVAAITSDSSTYYADSVKGRFTISRDNAKNTVYLQMNSLKPEDTAVYYCAKYFVYVGYGRYDYWGQGTEVTVSS | low polyreactivity
15 | QVQLVYSGGGLVQAGGSLRLSCAASGSTFQAYDMGWYRQAPGKERELVAAITTGGSTNYADSVKGRFTISRDNAKNTVYLQLNSLKPEDTAVYYCNADFIYVLYYVVLYDYWGQGTQVTVSS | low polyreactivity
16 | QVQLVESGGGLVQAGGSLRLSCDASGRIFQPNVMGWYRQAPGKERELVAAIRSGSSTYYADSVKGRFTISRDNAKNTFYLQMNSLKPEDTAVYYCATRYRKQYKPYEYWGQGTQVTVSS | high polyreactivity

Reference: the nanobody polyreactivity screen of Harvey et al. (2022)
